Test results taken from patent US8604172B2, “Humanized antibody compositions and methods for binding lysophosphatidic acid” (Lpath, Inc., priority 2009, dated 2013).

How the values were obtained:
[1] = Competition ELISA (18:1 LPA coat), competitor 18:2 LPA; format: binding; settings: maximum inhibition
Experimental: (§1) Many isoforms of LPA have been identified to be biologically active and it is preferable that the mAb recognize all of them to some extent to be of therapeutic relevance. The specificity of the anti-LPA mAbs was evaluated utilizing a competition assay in which the competitor lipid was added to the antibody-immobilized lipid mixture.
(§2) Competition ELISA assays were performed with the anti-LPA mAbs to assess their specificity. 18:1 LPA was captured on ELISA plates. Each competitor lipid (up to 10 uM) was serially diluted in BSA (1 mg/ml)-PBS and then incubated with the mAbs (3 nM). Mixtures were then transferred to LPA coated wells and the amount of bound antibody was measured with a secondary antibody. Data are normalized to maximum signal (A450) and are expressed as percent inhibition. Assays were performed in triplicate. IC50: Half maximum inhibition concentration; MI: Maximum inhibition (% of binding in the absence of inhibitor); - - -: not estimated because of weak inhibition. A high inhibition result indicates recognition of the competitor lipid by the antibody.

[2] = tested on: selected human cancer cell lines; test: LPA-induced cancer cell proliferation; format: cell-based; settings: addition of anti-LPA mAb
Experimental: LPA is a potent growth factor supporting cell survival and proliferation by stimulation of Gi, Gq and G12/13 via GPCR-receptors and activation of downstream signaling events. Cell lines were tested for their proliferative response to LPA ([…]). Cell proliferation was assayed by using the cell proliferation assay kit from Chemicon (Temecula Calif.) (Panc-1) and the Cell-Blue titer from Pierce (Caki-1). Each data point is the mean of three independent experiments. […] Even though tumor-derived cells normally have high basal levels of proliferation, LPA appears to further augment proliferation in most tumor cell lines. Anti-LPA mAbs (B7 and B58) were assessed for the ability to inhibit LPA-induced proliferation in selected human cancer cell lines.

[3] = Competition ELISA (18:1 LPA coat), competitor 18:1 LPA; format: binding; settings: maximum inhibition
Experimental: as §1, §2

[4] = tested on: renal cell carcinoma (Caki-1) cells; test: Cell monolayer scratch assay, Caki-1; format: cell-based, human; settings: mAb 10 μg/ml
Experimental: An important characteristic of metastatic cancers is that the tumor cells escape contact inhibition and migrate away from their tissue of origin. […] Accordingly, we tested the ability of anti-LPA mAb to block LPA-dependent cell migration in several human cancer cell lines by using the cell monolayer scratch assay. Cells were seeded in 96 well plates and grown to confluence. After 24 h of starvation, the center of the wells was scratched with a pipette tip. In this art-accepted “scratch assay,” the cells respond to the scratch wound in the cell monolayer in a stereotypical fashion by migrating toward the scratch and close the wound. Progression of migration and wound closure are monitored by digital photography at 10× magnification at desired timepoints. Cells were not treated (NT), treated with LPA ([…]) with or w/o mAb B7 (10 μg/ml) or an isotype matching non-specific antibody (NS) (10 μg/ml). In untreated cells, a large gap remains between the monolayer margins following the scratch. LPA-treated cells in contrast, have only a small gap remaining at the same timepoint, and a few cells are making contact across the gap.

[5] = Pharmacokinetics of Lpathomab in mice; format: in vivo
Experimental: Preliminary PK studies were conducted with Lpathomab. For IV dosed groups, mice were injected with a single 30 mg/kg dose and sacrificed at time points up to 15 days. Antibody was also given via i.p. administration and animals were sacrificed during the first 24 hrs to compare levels of mAb in the blood over this period of time for different routes of delivery. Pharmacokinetic parameters were assessed by WinNonlin. Three mice were sacrificed at each time point and plasma samples were collected and analyzed for mAb levels by ELISA.

SKOV3 cells = test: Taxol-induced apoptosis / caspase activity in SKOV3 cells; format: cell-based, human
Experimental: The ability of LPA to protect ovarian tumor cells against apoptosis when exposed to clinically-relevant levels of the chemotherapeutic agent, paclitaxel (Taxol) was investigated. […] LPA protected SKOV3 cells from Taxol-induced apoptosis. Apoptosis was assayed by measurement of the caspase activity as recommended by the manufacturer (Promega). As anticipated, LPA protected most of the cancer cell lines tested from taxol-induced cell death. […] Moreover, the anti-LPA antibody was able to remove the protection provided by serum. Serum is estimated to contain about 5-20 uM LPA. […] Taxol-induced caspase activation was enhanced by the addition of LT3000 to the culture medium.

Thermostability (Tm) = format: physicochemical
Experimental: The thermostability of the humanized antibodies were studied by measuring their LPA-binding affinity (EC50) after heating using the direct binding ELISA. Antibodies dissolved in PBS (Cellgo, Cat. No 021-040) were diluted to 25 ug/ml and incubated at 60° C., 65° C., 70° C., 75° C. and 80° C. for 10 min. Prior to increasing the temperature, 10 ul of each sample was removed and diluted with 90 ul of PBS and stored on ice. The samples were then vortexed briefly and the insoluble material was removed by centrifugation for 1 min at 13,000 rpm. The binding activity of the supernatant was determined using the direct LPA-binding ELISA and compared to a control, which consisted of the same sample without heat treatment.

[6] = Competition ELISA specificity, competitor C1P; format: binding; settings: maximum inhibition, n = 3
Experimental: (§3) The specificity of the anti-LPA mAbs was assessed for their binding to LPA related biolipids such as distearoyl-phosphatidic acid, lysophosphatidylcholine, S1P, ceramide and ceramide-1-phosphate.

neovascularization = test: Classical angiogenesis models; format: in vivo; settings: two classical angiogenesis models
[7] = Competition ELISA specificity, competitor DSPA; format: binding; settings: maximum inhibition, n = 3
Experimental: as §3

B1: LT3000: Murine anti-LPA monoclonal antibody clone B7, IgG1k, renamed Lpathomab, also known as LT3000; hybridoma 504B7.1, ATCC PTA-8420 (antibody, V domains shown)
VH: QVQLQQSGAELVRPGTSVKVSCKASGYGFINYLIEWIKQRPGQGLEWIGLINPGSDYTNYNENFKGKATLTADKSSSTAYMHLSSLTSEDSAVYFCARRFGYYGSGNYFDYWGQGTTLTVSS
VL: DVVMTQTPLSLPVSLGDQASISCTSGQSLVHINGNTYLHWYLQKPGQSPKLLIYKVSNLFSGVPDRFSGSGSGTDFTLKISRVEAEDLGVYFCSQSTHFPFTFGTGTKLEIK
Question: Which results are given for B1?
Answer: MI, 18:2 LPA [1]: 100%; LPA-induced increase in proliferation [2]: mitigated; MI, 18:1 LPA [3]: 100%; LPA-stimulated migration [4]: inhibitory effect; time until fully distributed to the blood ([5]; i.p. administration): 6 to 12 h; half-life ([5]; i.v. administration, listed as murine antibody): ~96 h; LPA protection from death induced by chemotherapeutic agent (Taxol) (SKOV3 cells; LPA responsive cells, 24 h): blocked the ability of LPA to protect cells from death; Apoptosis, % Induction (over LPA + TAXOL taken as 100) (SKOV3 cells; Lpathomab 150 μg/mL, 1 μM Taxol, 1 μM 18:1 LPA, n = 1): 79%; Taxol-induced caspase activation (SKOV3 cells; SKOV3, serum-containing culture medium): enhanced; Tm (Thermostability (Tm); 10 min at 60-80° C., LPA binding by direct ELISA): 67 °C; Apparent Tm (Thermostability (Tm); pH 7.4): 67 °C at pH 7.4; MI (%), C1P [6]: 1.0%; neovascularization (neovascularization): inhibited; MI (%), DSPA [7]: 0%
